Numbering of substitutions follows the chain as printed. One block for each binder: values may come before it.
Tests used:
[1] = target: T1, prostate specific membrane antigen (PSMA) on LNCaP cells (human, UniProt Q04609 1-750); test: ELISA on plates coated with LNCap membrane preparation
T1 construct: whole, on cells; also called LNCap membrane preparation

[2] = target: T1, prostate specific membrane antigen …; test: ELISA on plates coated with LNCap membrane preparation; purified antibody; reference J415 chimeric antibody

T1 sequence (Q04609 whole entry): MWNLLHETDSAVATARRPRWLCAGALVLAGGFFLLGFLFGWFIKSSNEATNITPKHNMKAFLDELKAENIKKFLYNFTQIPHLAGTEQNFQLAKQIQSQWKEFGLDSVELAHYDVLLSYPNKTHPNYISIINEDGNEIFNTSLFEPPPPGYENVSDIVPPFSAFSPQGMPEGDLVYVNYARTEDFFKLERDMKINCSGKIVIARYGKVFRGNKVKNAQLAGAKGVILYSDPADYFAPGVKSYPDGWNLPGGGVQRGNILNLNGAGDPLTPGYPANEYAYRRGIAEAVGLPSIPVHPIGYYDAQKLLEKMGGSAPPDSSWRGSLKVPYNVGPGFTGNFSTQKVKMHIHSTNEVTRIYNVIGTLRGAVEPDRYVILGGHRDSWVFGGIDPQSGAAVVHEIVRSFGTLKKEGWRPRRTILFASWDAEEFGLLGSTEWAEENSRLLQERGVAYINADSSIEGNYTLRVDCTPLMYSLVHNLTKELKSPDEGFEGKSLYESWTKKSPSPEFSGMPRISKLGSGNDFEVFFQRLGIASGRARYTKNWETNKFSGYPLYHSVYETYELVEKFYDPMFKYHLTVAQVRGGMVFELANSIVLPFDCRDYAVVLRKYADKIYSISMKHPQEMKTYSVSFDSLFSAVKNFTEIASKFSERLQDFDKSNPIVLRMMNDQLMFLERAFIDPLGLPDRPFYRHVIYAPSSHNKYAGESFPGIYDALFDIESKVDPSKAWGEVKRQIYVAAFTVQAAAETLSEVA

fold less binding than the chimeric antibody [2]: 2 fold
B2: deimmunized J415 heavy chain version 2 combined with DIVK5 (antibody, V domains shown)
VH: EVKLEESGGGLVQPGGSMKISCVASGFTFSNYWMNWVRQTPEKGLEWVALIRSQSNNFATHYAESVKGRVIISRDDSKSSVYLQMNSLRAEDTAVYYCTRRWNNFWGQGTTVTVSS
VL: NIVMTQFPKSMSASAGERMTLTCKASENVGTYVSWYQQKPTQSPKMLIYGASNRFTGVPDRFSGSGSGTDFILTISSVQAEDLVDYYCGQSYTFPYTFGGGTKLEMK
notes: also called J415DIVH2/J415DIVK5

fold less binding than the chimeric antibody [2]: 2 fold
B4: deimmunized J415 heavy chain version 1 combined with DIVK5 (antibody, V domains shown)
VH: B2 VH with V23K
VL: B2 VL
notes: also called J415DIVH1/J415DIVK5

Further lines, the binder ahead of its results:

B1: deimmunized J415 heavy chain version 4 combined with deimmunized J415 light chain version 5 (antibody, V domains shown)
VH: B2 VH with T40S, L50E
VL: B2 VL
notes: also called DIVH4/DIVK5; J415DIVH4/J415DIVK5
binding result [1]: binds

B3: J415 chimeric antibody (antibody, V domains shown)
VH: B2 VH with I20L, T40S, L50E, S87N, A94G, V95I, V112L
VL: B2 VL with A13I, A15V, M19V, T41E, S63T, G68A, A80T
notes: Expression vectors carry human IgG1 and kappa; also called the chimeric
binding result [1]: binds

Reference: US20040120958A1 (CORNELL RESEARCH FOUNDATION, published 2004)
